Values quoted from earlier work as cited in paper PMC10173724.

Target: FABP3 (Homo sapiens) (UniProt P05413)

Kd: 2.1 nM
Substance: alpha-synuclein C-terminal peptide Y133F/Y136F 130-140 (from UniProt P37840)
